We go through one protein from publication PMC3879539, “Control of KirBac3.1 Potassium Channel Gating at the Interface between Cytoplasmic Domains*” (The Journal of Biological Chemistry, 2013).

The data set deals with the molecule itself. The data set is described as follows: crystal structure; purified channel in 14 mM HEGA-10, 6 mg/ml; crystallised in 10% glycerol, 90 mM HEPES pH 7, 20% PEG-400, 5% PEG-4000, 2.5% PEG-8000, 10 mM spermidine, 20 °C; space group P4212, one molecule in the asymmetric unit; 2.46 Å.

B1: KirBac3.1 S129R/S205L (natural protein, Magnetospirillum magnetotacticum)
chain: MTGGMKPPARKPRILNSDGSSNITRLGLEKRGWLDDHYHDLLTVSWPVFITLITGLYLVTNALFALAYLACGDVIENARPGSFTDAFFFSVQTMATIGYGKLIPIGPLANTLVTLEALCGMLGLAVAARLIYARFTRPTAGVLFSSRMVISDFEGKPTLMMRLANLRIEQIIEADVHLVLVRSEISQEGMVFRRFHDLTLTRSRLPIFSLSWTVMHPIDHHSPIYGETDETLRNSHSEFLVLFTGHHEAFAQNVHARHAYSCDEIIWGGHFVDVFTTLPDGRRALDLGKFHEIAQ
notes: KirBac3.1, inwardly rectifying potassium (Kir) channel homolog from Magnetospirillum magnetotacticum; the final model contains 283 of 301 residues; The tetramer arises from crystallographic symmetry (one molecule in the asymmetric unit, space group P4212); also called S129R/S205L double mutant; S129R/S205L mutant channel; source: size exclusion column, detergent exchanged to HEGA-10
Regarding B1, the binding result was “binds”.
